Measurements reported in patent publication US20150344570A1 (published 2015).

Legend:
Experiment in all cases: SPR (Biacore); KD of H240-Kn061/H240-Hl071/L73-k0 divided by KD of the variant
[1] = biological target: T1, FcγRIIa H extracellular domain with C-terminal His tag (human, UniProt P12318 34-217)
T1 construct: extracellular domain; Soluble receptor, H131 allotype; also called FcgRIIa H; FcgRIIaH; not shown: His tag at the C terminus
T1 sequence (looked up): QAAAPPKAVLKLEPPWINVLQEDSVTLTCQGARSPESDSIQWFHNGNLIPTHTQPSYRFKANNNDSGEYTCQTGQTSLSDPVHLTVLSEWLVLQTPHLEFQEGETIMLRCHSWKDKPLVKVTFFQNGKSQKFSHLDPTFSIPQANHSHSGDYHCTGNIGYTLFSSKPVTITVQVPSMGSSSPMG

[2] = biological target: T2, FcγRIIb extracellular domain with C-terminal His tag (human, UniProt P31994 43-217)
T2 construct: extracellular domain; also called FcgRIIb; CD32B; not shown: His tag at the C terminus
T2 sequence (looked up): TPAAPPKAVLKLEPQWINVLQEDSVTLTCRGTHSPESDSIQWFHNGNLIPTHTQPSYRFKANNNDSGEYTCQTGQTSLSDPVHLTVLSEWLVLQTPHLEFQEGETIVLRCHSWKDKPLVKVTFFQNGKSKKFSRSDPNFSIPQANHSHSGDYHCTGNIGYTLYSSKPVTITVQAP

[3] = biological target: T3, FcγRIIa R extracellular domain with C-terminal His tag (human, UniProt P12318 34-217)
T3 construct: extracellular domain; Soluble receptor, R131 allotype; also called FcgRIIa R; FcgRIIaR; not shown: His tag at the C terminus
T3 sequence (looked up): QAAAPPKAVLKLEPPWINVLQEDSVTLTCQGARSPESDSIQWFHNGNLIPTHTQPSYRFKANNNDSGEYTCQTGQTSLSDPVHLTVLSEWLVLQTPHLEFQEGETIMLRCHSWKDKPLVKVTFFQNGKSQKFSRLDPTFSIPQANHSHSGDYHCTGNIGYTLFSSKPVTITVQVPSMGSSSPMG

[4] = biological target: T4, FcγRIIIa V extracellular domain with C-terminal His tag (human, UniProt P08637 17-208)
T4 construct: extracellular domain; Soluble receptor, V158 allotype; also called FcgRIIIa V; FcgRIIIaV; not shown: His tag at the C terminus
T4 sequence (P08637 17-208 F176V): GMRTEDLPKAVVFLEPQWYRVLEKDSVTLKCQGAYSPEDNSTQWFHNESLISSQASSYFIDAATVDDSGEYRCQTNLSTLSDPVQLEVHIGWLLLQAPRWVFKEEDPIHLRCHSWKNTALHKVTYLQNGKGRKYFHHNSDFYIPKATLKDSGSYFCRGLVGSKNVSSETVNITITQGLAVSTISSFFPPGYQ

[5] = biological target: T5, FcγRIIIa F extracellular domain with C-terminal His tag (human, UniProt P08637 17-208)
T5 construct: extracellular domain; Soluble receptor, F158 allotype; also called FcgRIIIa F; FcgRIIIaF; not shown: His tag at the C terminus
T5 sequence (P08637 17-208): as the sequence (P08637 17-208 F176V) above, with V160F counted along it

B1: H240-Kn061/H240-Hl071/L73-k0 variant with F241L introduced into H chain H240-Hl071 (antibody, human IgG1, kappa)
heavy 1: QDQLVQSGAEVKKPGASVKVSCKASGFNIKDTYIQWVRQAPGQGLEWMGRIDPLRKQTKYREKFEGRVTITADTSTNTAYMELSSLRSEDTAVYYCVRSGREFDYWGQGTLVTVSSASTKGPSVFPLAPSSKSTSGGTAALGCLVKDYFPEPVTVSWNSGALTSGVHTFPAVLQSSGLYSLSSVVTVPSSSLGTQTYICNVNHKPSNTKVDKKVEPKSCDKTHTCPPCPAPEYYWGPSVFLFPPKPKDTLMISRTPEVTCVVVDVSDEDPEVKFNWYVDGVEVHNAKTKPREEQYNATYRVVSVLTVLHQDWLNGKEYKCKVSNKALPAPIEKTISKAKGQPREPQVCTLPPSRDELTKNQVSLWCLVKGFYPSDIAVEWESNGQPENNYKTTPPVLDSDGSFFLYSKLTVDKSRWQQGNVFSCSVMHEALHNHYTQKSLSLSP
heavy 2: QDQLVQSGAEVKKPGASVKVSCKASGFNIKDTYIQWVRQAPGQGLEWMGRIDPLRKQTKYREKFEGRVTITADTSTNTAYMELSSLRSEDTAVYYCVRSGREFDYWGQGTLVTVSSASTKGPSVFPLAPSSKSTSGGTAALGCLVKDYFPEPVTVSWNSGALTSGVHTFPAVLQSSGLYSLSSVVTVPSSSLGTQTYICNVNHKPSNTKVDKKVEPKSCDKTHTCPPCPAPELLGGPSVLLFPPKPKDTLMISRTPEVTCVVVDVSHEDPEVKFNWYVDGVEVHNAKTKPREEQYNSTYRVVSVLTVLHQDWLNGKEYKCKVSNDALPMPIEETISKAKGQPREPQVYTLPPSRCELTKNQVSLSCAVKGFYPSDIAVEWESNGQPENNYKTTPPVLDSDGSFFLVSKLTVDKSRWQQGNVFSCSVMHEALHNHYTQKSLSLSP
light: DIQMTQSPSSLSASVGDRVTITCRASQDIHKYIAWYQQKPGQAPRLLIQYTSTLQPGVPSRFSGSGSGTDYTFTISSLQPEDIATYYCLQYEQLRTFGGGTKVEIKRTVAAPSVFIFPPSDEQLKSGTASVVCLLNNFYPREAKVQWKVDNALQSGNSQESVTEQDSKDSTYSLSSTLTLSKADYEKHKVYACEVTHQGLSSPVTKSFNRGEC
notes: Point variant of the heterodimerized anti-epiregulin IgG1 template; also called H240-Hl071 F241L
For B1, the “relative KD” value [1] was 1.2, the “relative KD” value [2] was 0.8 and the “relative KD” value [3] was 1.2. The “relative KD” value [4] was 1.3 and the “relative KD” value [5] was 1.3.

B2: H240-Kn061/H240-Hl071/L73-k0 variant with L235F introduced into H chain H240-Hl071 (antibody, human IgG1, kappa)
heavy 1: QDQLVQSGAEVKKPGASVKVSCKASGFNIKDTYIQWVRQAPGQGLEWMGRIDPLRKQTKYREKFEGRVTITADTSTNTAYMELSSLRSEDTAVYYCVRSGREFDYWGQGTLVTVSSASTKGPSVFPLAPSSKSTSGGTAALGCLVKDYFPEPVTVSWNSGALTSGVHTFPAVLQSSGLYSLSSVVTVPSSSLGTQTYICNVNHKPSNTKVDKKVEPKSCDKTHTCPPCPAPEYYWGPSVFLFPPKPKDTLMISRTPEVTCVVVDVSDEDPEVKFNWYVDGVEVHNAKTKPREEQYNATYRVVSVLTVLHQDWLNGKEYKCKVSNKALPAPIEKTISKAKGQPREPQVCTLPPSRDELTKNQVSLWCLVKGFYPSDIAVEWESNGQPENNYKTTPPVLDSDGSFFLYSKLTVDKSRWQQGNVFSCSVMHEALHNHYTQKSLSLSP
heavy 2: QDQLVQSGAEVKKPGASVKVSCKASGFNIKDTYIQWVRQAPGQGLEWMGRIDPLRKQTKYREKFEGRVTITADTSTNTAYMELSSLRSEDTAVYYCVRSGREFDYWGQGTLVTVSSASTKGPSVFPLAPSSKSTSGGTAALGCLVKDYFPEPVTVSWNSGALTSGVHTFPAVLQSSGLYSLSSVVTVPSSSLGTQTYICNVNHKPSNTKVDKKVEPKSCDKTHTCPPCPAPELFGGPSVFLFPPKPKDTLMISRTPEVTCVVVDVSHEDPEVKFNWYVDGVEVHNAKTKPREEQYNSTYRVVSVLTVLHQDWLNGKEYKCKVSNDALPMPIEETISKAKGQPREPQVYTLPPSRCELTKNQVSLSCAVKGFYPSDIAVEWESNGQPENNYKTTPPVLDSDGSFFLVSKLTVDKSRWQQGNVFSCSVMHEALHNHYTQKSLSLSP
light: DIQMTQSPSSLSASVGDRVTITCRASQDIHKYIAWYQQKPGQAPRLLIQYTSTLQPGVPSRFSGSGSGTDYTFTISSLQPEDIATYYCLQYEQLRTFGGGTKVEIKRTVAAPSVFIFPPSDEQLKSGTASVVCLLNNFYPREAKVQWKVDNALQSGNSQESVTEQDSKDSTYSLSSTLTLSKADYEKHKVYACEVTHQGLSSPVTKSFNRGEC
notes: Point variant of the heterodimerized anti-epiregulin IgG1 template; also called H240-Hl071 L235F
With B2 the “relative KD” value [1] was 1.1, the “relative KD” value [2] was 1 and the “relative KD” value [3] was 1.2. For the same binder, the “relative KD” value [4] was 1.6 and the “relative KD” value [5] was 1.9.

B3: H240-Kn061/H240-Hl071/L73-k0 variant with F241M introduced into H chain H240-Hl071 (antibody, human IgG1, kappa)
heavy 1: QDQLVQSGAEVKKPGASVKVSCKASGFNIKDTYIQWVRQAPGQGLEWMGRIDPLRKQTKYREKFEGRVTITADTSTNTAYMELSSLRSEDTAVYYCVRSGREFDYWGQGTLVTVSSASTKGPSVFPLAPSSKSTSGGTAALGCLVKDYFPEPVTVSWNSGALTSGVHTFPAVLQSSGLYSLSSVVTVPSSSLGTQTYICNVNHKPSNTKVDKKVEPKSCDKTHTCPPCPAPEYYWGPSVFLFPPKPKDTLMISRTPEVTCVVVDVSDEDPEVKFNWYVDGVEVHNAKTKPREEQYNATYRVVSVLTVLHQDWLNGKEYKCKVSNKALPAPIEKTISKAKGQPREPQVCTLPPSRDELTKNQVSLWCLVKGFYPSDIAVEWESNGQPENNYKTTPPVLDSDGSFFLYSKLTVDKSRWQQGNVFSCSVMHEALHNHYTQKSLSLSP
heavy 2: QDQLVQSGAEVKKPGASVKVSCKASGFNIKDTYIQWVRQAPGQGLEWMGRIDPLRKQTKYREKFEGRVTITADTSTNTAYMELSSLRSEDTAVYYCVRSGREFDYWGQGTLVTVSSASTKGPSVFPLAPSSKSTSGGTAALGCLVKDYFPEPVTVSWNSGALTSGVHTFPAVLQSSGLYSLSSVVTVPSSSLGTQTYICNVNHKPSNTKVDKKVEPKSCDKTHTCPPCPAPELLGGPSVMLFPPKPKDTLMISRTPEVTCVVVDVSHEDPEVKFNWYVDGVEVHNAKTKPREEQYNSTYRVVSVLTVLHQDWLNGKEYKCKVSNDALPMPIEETISKAKGQPREPQVYTLPPSRCELTKNQVSLSCAVKGFYPSDIAVEWESNGQPENNYKTTPPVLDSDGSFFLVSKLTVDKSRWQQGNVFSCSVMHEALHNHYTQKSLSLSP
light: DIQMTQSPSSLSASVGDRVTITCRASQDIHKYIAWYQQKPGQAPRLLIQYTSTLQPGVPSRFSGSGSGTDYTFTISSLQPEDIATYYCLQYEQLRTFGGGTKVEIKRTVAAPSVFIFPPSDEQLKSGTASVVCLLNNFYPREAKVQWKVDNALQSGNSQESVTEQDSKDSTYSLSSTLTLSKADYEKHKVYACEVTHQGLSSPVTKSFNRGEC
notes: Point variant of the heterodimerized anti-epiregulin IgG1 template; also called H240-Hl071 F241M
B3 was tested, and the “relative KD” value [1] was 1.1, the “relative KD” value [2] was 0.9 and the “relative KD” value [3] was 1.3. The “relative KD” value [4] was 1.3 and the “relative KD” value [5] was 1.3.

B4: H240-Kn061/H240-Hl071/L73-k0 variant with V240A introduced into H chain H240-Hl071 (antibody, human IgG1, kappa)
heavy 1: QDQLVQSGAEVKKPGASVKVSCKASGFNIKDTYIQWVRQAPGQGLEWMGRIDPLRKQTKYREKFEGRVTITADTSTNTAYMELSSLRSEDTAVYYCVRSGREFDYWGQGTLVTVSSASTKGPSVFPLAPSSKSTSGGTAALGCLVKDYFPEPVTVSWNSGALTSGVHTFPAVLQSSGLYSLSSVVTVPSSSLGTQTYICNVNHKPSNTKVDKKVEPKSCDKTHTCPPCPAPEYYWGPSVFLFPPKPKDTLMISRTPEVTCVVVDVSDEDPEVKFNWYVDGVEVHNAKTKPREEQYNATYRVVSVLTVLHQDWLNGKEYKCKVSNKALPAPIEKTISKAKGQPREPQVCTLPPSRDELTKNQVSLWCLVKGFYPSDIAVEWESNGQPENNYKTTPPVLDSDGSFFLYSKLTVDKSRWQQGNVFSCSVMHEALHNHYTQKSLSLSP
heavy 2: QDQLVQSGAEVKKPGASVKVSCKASGFNIKDTYIQWVRQAPGQGLEWMGRIDPLRKQTKYREKFEGRVTITADTSTNTAYMELSSLRSEDTAVYYCVRSGREFDYWGQGTLVTVSSASTKGPSVFPLAPSSKSTSGGTAALGCLVKDYFPEPVTVSWNSGALTSGVHTFPAVLQSSGLYSLSSVVTVPSSSLGTQTYICNVNHKPSNTKVDKKVEPKSCDKTHTCPPCPAPELLGGPSAFLFPPKPKDTLMISRTPEVTCVVVDVSHEDPEVKFNWYVDGVEVHNAKTKPREEQYNSTYRVVSVLTVLHQDWLNGKEYKCKVSNDALPMPIEETISKAKGQPREPQVYTLPPSRCELTKNQVSLSCAVKGFYPSDIAVEWESNGQPENNYKTTPPVLDSDGSFFLVSKLTVDKSRWQQGNVFSCSVMHEALHNHYTQKSLSLSP
light: DIQMTQSPSSLSASVGDRVTITCRASQDIHKYIAWYQQKPGQAPRLLIQYTSTLQPGVPSRFSGSGSGTDYTFTISSLQPEDIATYYCLQYEQLRTFGGGTKVEIKRTVAAPSVFIFPPSDEQLKSGTASVVCLLNNFYPREAKVQWKVDNALQSGNSQESVTEQDSKDSTYSLSSTLTLSKADYEKHKVYACEVTHQGLSSPVTKSFNRGEC
notes: Point variant of the heterodimerized anti-epiregulin IgG1 template; also called H240-Hl071 V240A
For B4, the “relative KD” value [1] was 1.2, the “relative KD” value [2] was 1 and the “relative KD” value [3] was 1. For the same binder, the “relative KD” value [4] was 1.7 and the “relative KD” value [5] was 1.3.
